The text below walks through data of the nanobody polyreactivity screen of Harvey et al. (2022).

The series in a line: yeast display, Sf9 membrane polyspecificity reagent, FACS + sequencing; frameworks hold sequencing errors. In short, it runs like this: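 Synthetic nanobody libraries on Saccharomyces cerevisiae BJ5465 were galactose-induced for 36–48 hours, stained 1 hour at 4 °C with 10% biotinylated, detergent-solubilized Sf9 membrane reagent and enriched on streptavidin microbeads. FACS then separated cells into low and high (top ~1%) gates by anti-HA (expression) and streptavidin (reagent binding) fluorescence. Genes were colony-PCR amplified, MiSeq 2 × 250 sequenced and CDR-length filtered. A clone's polyreactivity label is that of its gate of origin.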
“QDQLVESVGGLVQAGGSHRLSCAASGFTLKAYVMGWYRQAPGKERELVAAIRITGGRTYYADSVKGRFTISRDNAKNTVYLQMNSLKPQDTAVYYCNAVKGEPDDYVPFELDYWGQGTQVTVSS”: the “polyreactivity (PSR sort gate)” value is reported as “high polyreactivity”.

On to “QDQLVESVGGLVQAGGSLRLSCAASGGTFGPNAMGWYRQAPGKERELVAAISASGGITYYADSVKGRFTISRDNAKNTVYLQMNSLKPEDTAVYYCAAAITWIYSQAAFKIVQYDYWGQGTQVTVSS”, for which the “polyreactivity (PSR sort gate)” value is on record as “low polyreactivity”.

As to “QDQLVESVGGLVQAGGSLRLSCAASGSIFVRYAMGWYRQAPGKERELVAAISSDGNTYYADSVKGRFTISRDNAKNTVYLQMNSLKPEDTAVYYCAAKTRSRYYWGQGTQVTVSS”, the “polyreactivity (PSR sort gate)” value is “high polyreactivity”. Regarding “QDQPVESGGGLVQAGGSLRLSCDDSGFTFVYYAMGWYRQAPGQERELVAAISTGGSTYYADSVKWRFTISRDNAKNTVYLQMNSLKPEDTAVYYCNAVYTYRWRFNYWGQGTQVTVSS”, the “polyreactivity (PSR sort gate)” value is “high polyreactivity”. The same measure for “QDQRVDSGRGLVQAGGSLRLSCAASGSIFDFYARGWNRPAPGKERELVATISSAGSTYYAESVKGRFTISRDNAKNTVYLQMNSLKPEDTALYYCARGYIRSYWWYHSDRGDFWGQGTQVTVSS”: “low polyreactivity”; for “QEHLQESGGGLVQAGGDLRLSSPSSGNIFRDYISGCYRQAPGKEREFAAGIDRGANTNYADSVKGRFTISRDNAKNTVYLQMISLKPVDTAVYYCGVHTAIVPEFIYWGQGTQVTVSS”: “low polyreactivity”; for “QEQLEESGGGLVQAGGSLRLSCAASGRIFAAYAKGWYRPAPGKEREVVAGITRTGGSTYYADSVKGRFTISRDNAKNTVYLQMNSLKPEDTAVYYCAARWIWRGYDYWGQGTKVTVSS”: “high polyreactivity”. Under “QEQLQEIGGRLEQAGGSLRLSCAASGYITYIGTMGWYRHAPGKEREFVATIVVGSTTNYADSVKGRFTISRDNAKNTVYLQPESGRYRGVLLRGWLLAVGKFTYWGQGTQETVSS” stands “low polyreactivity”. Under “QEQLQETGGGLVRAGGSLRLICAASRSNSVEAGMGRSRQAPGEERELVATINDGSITNYAVSVKGRFTTSRDNAKYTVYLLMNSLKPEDTAVYYCAALTRNYQSHQFWGQGTQVTVSR” stands “high polyreactivity”; under “QEQLVESGGGIVKAGGSLRLSCAASGSIFSYYAMGRYRKSPGKEMELVAGITGGGSTDYADSLKGRFTISRDNAKNTVYLQMNSLIPEDPAVYYCAKRYVPWRPYDYWGQGTQVTVSS”, “low polyreactivity”; under “QEQRVESGGGFVQAGGSLRLSCAASGFICVDYAMRWYRHARGNEREWVAAITYDGGSTYFADSVKARFTISRDNAKNTVNSQMNSLNPEDTALYYWAADYGYSQYILRQVRLEELDYSGQGTQVTVSS”, “low polyreactivity”. Consider “QFHLVESGGGLVQAGGSLRLSCAASGITFGYYAMGWYRQAPGKERELVAAISGSASRTYYADTVKGRFTISRDNAKNTVYLQMNSLKQEDTAVYYCNARGGGTASCYYYWGPGTQVTVSS”, for which the “polyreactivity (PSR sort gate)” value is on record as “high polyreactivity”. Under “QFHLVESGGGLVQAGGSLRLSCAASGRIFYPYAMGWYRQAPGKEREFVAAITRRTASTYYADSVKGRFTITRDNAKNTVYLQMNSLKPEDTAVYYCAADSYLKRPYYAGYYYWGQGTQVTVSS” stands “high polyreactivity”; under “QFHLVESGGGLVQAGGSLRLSCAASGYTFGKYAKGWYRHAPGKDRELVAGISSRGGSTYYADSVKWRFTISRDNAKNTVYLQMISLKPEYTAVYYCAAVAYTGGPRKLSFNYWGQGTQVTLSS”, “high polyreactivity”; under “QFQLEESGGGLVQAGGSLRLSCDASGSTFSYALGWYRQAPGKERELVAAITIGGRTSYADSVKGRFTISRDNAKNTVYLQMNSLKPEDTAVYYCAAEGYYPVYYYVYYGYDYWGQGTQVTVSS”, “low polyreactivity”.

Take “QFQLLESWGGLVQAGGSLLFSCAASGSTFGYYAMGWYRKAPGKERELVAAISKSGGTTSYADSVKGRFTISRDNAKNTVYLQMISLKPEDTAVYYCSARSFRRGGLRGYDSWGQGTQVTVSS”: the “polyreactivity (PSR sort gate)” value is recorded as “high polyreactivity”. Under “QFQLVDSGGGLVQAGGSLRLSCAASGRNYRLYAMGWSRQAPRKERELVAAITRGGRTNYAYSVKGRFTISRDNAMNTVYLQMNSLKPEDTAVYYCAARFVERDTDYYYWGQGTQVTVSS” stands “low polyreactivity”. The same measure for “QFQLVDSGGGLVQAGGSLRLSCAASGRTFFFYAMGWYRQAPGKERELVASITWSGGTRTYYADSVKGRFTISRDNAKNTVYLQMNSLKREDTAVYYCADTYSSYWFNRYGGKYYYWGQGTQVTVSS”: “high polyreactivity”; for “QFQLVDSGGGLVQPGGSLRLRCAASGLTFQQYAMGWYRQAPGKERELVAAITSDGASTNYADSVKGRFTISRDNAKNTVYLQMNSLKPEDTAVYYCAARRRSRQYRYDYWGQGTQVTVSS”: “high polyreactivity”; for “QFQLVESAGGLLQAGGSLRIICAASGSTFGYNAMGWYRQAPGKERELVAAITGGGTTNYADSVKGRFTISRDNAKNTVYLQMNSLKPEDTAVYYCAASARRFFFPIYGLYYWGQVTQVTVSS”: “high polyreactivity”.

For the sequence “QFQLVESGGCLVQAGGSLRLSCAASGSIFLENTMGWYRQARGKEWEVVAPITSSGDSTYADSVKGRFTIARDNAKNTVYLHMNSLKPEDTAVYYCAAYAGSVRPGDLYGYDYWGQGTQVTVSS”, the “polyreactivity (PSR sort gate)” value is “low polyreactivity”. Under “QFQLVESGGGIVQAGGRLRLSCAASGSTFFGYAMGWFRQAPGKVRELVAAISSGGSTYYADSVKGRFTISRDNAKNTVYVQMNSLKPEDTAVYYCAAYSYPKKYGYWGQGTQVTVSL” stands “high polyreactivity”; under “QFQLVESGGGLDQAGGSLRLSCAASGFIFSWYAMGWYRQAPGKERELVAAINWSGGSTYYADSVKGRFTISRDNAKNTVYLQMNSLKPEDTAVYYCAAVRQSQFEYWGQGTQVTVSS”, “high polyreactivity”; under “QFQLVESGGGLDQAGGSLRLSCAASGRIFYRNCMGWYSQAPWKDRELVASIRRGGSTNYADSVKGRFTISRDNAKYTVYLQMNSVKPEDTAVYYCAARRFYPYISSGPYYYWGQGTQVTVSS”, “high polyreactivity”. The same measure for “QFQLVESGGGLFQAGGSLRLSCAASGSTFKRYAMGSYRQAPGKERELVAAISASGGSTSYADSVKGRFTISRDKAKNTVYLQMISLKPEDTAVYYCARDRFRSRFDYWGQGTQVTVSS”: “high polyreactivity”; for “QFQLVESGGGLVEAGGSLRLSCAASGFTFSWYVMGWYRPAPGKERELVATITNRGGSTYYADSVKGRFTISRDNAKNTVYIQMKSQKPEDTAVYYCAARKKGSRVGYDYWGEGTQVTVSS”: “high polyreactivity”; for “QFQLVESGGGLVQAGASLRLSCAASGSISKSYAMGWYRQAPGKERELVAAISWRGGSTYADSVKGRFTISRDNAKNTVYLQMNCLKPEDTAVYYCAATNYGTFWGGQSERYDYWGQGTQVTVSS”: “low polyreactivity”. The same measure for “QFQLVESGGGLVQAGASLRLSCAASVSTFRPYAMGWYRQAPGKERELVAAISSGDSTYYADSVKGRFTISRDNGKNTVYLQMNSLIPDDTAVYYCAKRNYWHRGGGYWGLGTQVTVSS”: “high polyreactivity”; for “QFQLVESGGGLVQAGCSLRLSCAASGRTVGSNDMGWYRQAPRKEMDLFAAIPTTTASTNYADSVKGRFTISRDNAKNTVYFQMNSLKPEDNAVYYCNKQYLWYYWDGTDAEDYWGQGTQVTVSS”: “low polyreactivity”.

Consider “QFQLVESGGGLVQAGGILRLSCAASGLIFQAYTMGWYRQAPGKEREFVAAISKSGGSTYYADSVKGRFTISRDNAKNTVYLQMNSLKPEDTAVYYCAAVDWRRPGYDYWGQGTQVTVSS”, for which the “polyreactivity (PSR sort gate)” value was “high polyreactivity”.
